These results are taken from US12692294B2, “Engineered NRG-1 variants with improved selectivity toward ErbB4 but not against ErbB3” (Amgen Inc., priority 2021, dated 2026).

Values joined by “and” are separate entries in the source; they are usually repeats but may differ in a detail not shown here. Equal values may be shown once. Bounds are passed on as bounds.

The target of one assay is T1, ErbB4 (Rattus norvegicus, UniProt Q62956).
T1 construct: forming the ErbB2/ErbB4 complex in cardiomyocytes and the ErbB2/ErbB3 complex in Schwann cells; endogenous in cells; host or cells: primary neonatal rat cardiomyocytes (Sprague Dawley pups, 0 to 4 days old)
T1 sequence (Q62956 26-1308): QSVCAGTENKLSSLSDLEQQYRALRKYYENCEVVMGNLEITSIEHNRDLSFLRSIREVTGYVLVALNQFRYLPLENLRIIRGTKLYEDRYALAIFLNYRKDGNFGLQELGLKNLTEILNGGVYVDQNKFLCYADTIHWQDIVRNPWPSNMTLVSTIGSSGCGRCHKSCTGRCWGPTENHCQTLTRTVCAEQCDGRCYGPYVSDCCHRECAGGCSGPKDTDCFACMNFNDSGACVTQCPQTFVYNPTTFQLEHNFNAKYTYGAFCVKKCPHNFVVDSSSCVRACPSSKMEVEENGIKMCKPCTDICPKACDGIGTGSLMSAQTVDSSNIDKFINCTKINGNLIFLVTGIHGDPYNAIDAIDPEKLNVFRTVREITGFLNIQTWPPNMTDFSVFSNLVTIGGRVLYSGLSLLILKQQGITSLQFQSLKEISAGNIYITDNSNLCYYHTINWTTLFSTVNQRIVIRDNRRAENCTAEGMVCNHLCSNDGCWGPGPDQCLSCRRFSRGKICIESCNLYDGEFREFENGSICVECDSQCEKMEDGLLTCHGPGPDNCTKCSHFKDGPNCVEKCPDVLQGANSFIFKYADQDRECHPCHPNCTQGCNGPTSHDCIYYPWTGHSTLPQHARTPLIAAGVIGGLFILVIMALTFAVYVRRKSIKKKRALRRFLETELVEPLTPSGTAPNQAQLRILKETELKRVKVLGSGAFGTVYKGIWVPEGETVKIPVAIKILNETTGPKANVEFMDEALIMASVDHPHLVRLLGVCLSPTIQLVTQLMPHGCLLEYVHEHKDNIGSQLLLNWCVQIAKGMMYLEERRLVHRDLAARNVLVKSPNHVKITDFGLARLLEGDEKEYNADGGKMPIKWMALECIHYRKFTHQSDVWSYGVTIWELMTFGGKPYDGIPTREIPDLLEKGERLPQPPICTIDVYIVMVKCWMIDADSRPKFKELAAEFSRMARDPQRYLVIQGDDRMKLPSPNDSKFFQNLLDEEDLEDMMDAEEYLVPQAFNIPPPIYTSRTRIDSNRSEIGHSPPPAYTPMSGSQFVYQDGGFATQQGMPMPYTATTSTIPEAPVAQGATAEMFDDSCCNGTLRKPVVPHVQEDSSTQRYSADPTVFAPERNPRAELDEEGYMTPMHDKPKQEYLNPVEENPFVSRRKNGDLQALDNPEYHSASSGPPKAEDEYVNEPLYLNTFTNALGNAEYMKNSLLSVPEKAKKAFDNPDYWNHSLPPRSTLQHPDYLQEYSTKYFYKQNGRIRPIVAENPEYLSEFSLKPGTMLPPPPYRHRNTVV
T1 sequence (P06494 23-1257 partner): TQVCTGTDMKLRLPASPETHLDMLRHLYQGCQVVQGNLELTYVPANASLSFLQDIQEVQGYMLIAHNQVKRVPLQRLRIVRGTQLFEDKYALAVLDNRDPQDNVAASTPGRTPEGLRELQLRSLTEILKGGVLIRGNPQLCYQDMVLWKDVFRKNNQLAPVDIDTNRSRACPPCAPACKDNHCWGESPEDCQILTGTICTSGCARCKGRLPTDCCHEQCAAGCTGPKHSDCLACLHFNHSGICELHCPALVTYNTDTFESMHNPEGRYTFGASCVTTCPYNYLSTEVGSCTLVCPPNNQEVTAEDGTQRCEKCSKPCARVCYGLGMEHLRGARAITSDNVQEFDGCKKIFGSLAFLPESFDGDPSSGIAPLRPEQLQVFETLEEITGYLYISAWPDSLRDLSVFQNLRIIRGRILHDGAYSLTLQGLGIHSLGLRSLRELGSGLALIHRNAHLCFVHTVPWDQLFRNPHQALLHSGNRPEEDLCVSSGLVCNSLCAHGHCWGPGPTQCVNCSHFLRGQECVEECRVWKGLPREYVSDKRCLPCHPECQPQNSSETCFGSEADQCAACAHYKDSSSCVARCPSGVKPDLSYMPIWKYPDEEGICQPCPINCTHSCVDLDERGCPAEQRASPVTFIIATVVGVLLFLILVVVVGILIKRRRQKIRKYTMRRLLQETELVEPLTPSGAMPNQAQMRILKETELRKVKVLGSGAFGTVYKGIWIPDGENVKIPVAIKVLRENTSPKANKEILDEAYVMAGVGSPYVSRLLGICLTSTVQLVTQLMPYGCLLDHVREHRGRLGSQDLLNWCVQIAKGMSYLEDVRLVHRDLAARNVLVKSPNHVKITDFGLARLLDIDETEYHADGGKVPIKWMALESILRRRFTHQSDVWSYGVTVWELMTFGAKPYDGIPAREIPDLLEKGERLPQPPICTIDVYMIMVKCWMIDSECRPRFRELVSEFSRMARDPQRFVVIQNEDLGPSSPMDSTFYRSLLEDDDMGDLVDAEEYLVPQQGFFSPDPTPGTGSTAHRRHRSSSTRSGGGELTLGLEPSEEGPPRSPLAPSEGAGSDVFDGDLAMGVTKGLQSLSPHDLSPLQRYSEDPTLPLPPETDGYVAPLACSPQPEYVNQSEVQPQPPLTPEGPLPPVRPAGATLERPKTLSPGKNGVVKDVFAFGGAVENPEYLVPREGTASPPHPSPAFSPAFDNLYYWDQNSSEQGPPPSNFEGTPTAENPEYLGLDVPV
In words: In vitro phosphorylation of Akt in neonatal rat cardiomyocytes. The assay is classed as cell-based. The conditions noted are these: for EC50: Akt (Serine 473) phosphorylation, neonatal rat cardiomyocytes, 15 minutes treatment, read-out: Cardiomyocyte (CM) (ErbB4) Avg EC50; for Selectivity SC/CM: ratio of EC50s Schwann cells/cardiomyocytes; for CM % Agonism AVG: top value of the Akt phosphorylation data points in cardiomyocytes, wild-type control 100. On the procedure: (§1) In Vitro Phosphorylation of Akt in Neonatal Rat Cardiomyocytes and Rat Schwann Cells by Neuregulin Variants
(§2) Specificity of neuregulin variants towards cardiomyocytes (ErbB4) versus Schwann cells (ErbB3) was tested by measuring Akt activity generated by formation of the ErbB2/ErbB4 and ErbB2/ErbB3 complexes. Upon activation by neuregulin, the ErbB4 and ErbB3 receptors dimerize preferentially with the ErbB2 co-receptor, forming the ErbB2/ErbB4 complex in cardiomyocytes and the ErbB2/ErbB3 complex in Schwann cells, both of which signal through the Akt pathway. Neonatal rat cardiomyocytes were isolated from hearts of Sprague Dawley rat pups at 0 to 4 days old according to manufacturer's protocol using the Neomyt kit and plated on Surecoat plates in NS media containing serum (all from Cellultron Life Technologies, Baltimore, MD). Rat Schwann cells were plated in Poly-D-Lysine coated plates with Dulbecco's modified Eagle's media (DMEM) supplemented with fetal bovine serum (Thermo Fisher) and forskolin (Millipore Sigma).
(§3) After a 24-hour incubation in a humidified incubator maintained at 37° C. and 5% CO2, cardiomyocytes and Schwann cells were washed with serum free media and incubated an additional 16 hours in DMEM supplemented with bovine serum albumin (Sigma). Both cell lines were then treated with titrations of the neuregulin variant molecules for 15 minutes, upon which cells were lysed in lysis buffer (Meso Scale Discovery (MSD)). For detection of Akt phosphorylation, lysates were added to the Multi-Spot 96-Well 4-Spot Phospho (Serine 473)/Total Akt plates (MSD), incubated according to the manufacturer's protocol and read in the SECTOR Imager 6000 (MSD). For both cell assays, the percent phosphorylation of Akt was calculated by multiplying the phospho Akt signal by 2, then dividing by the phospho Akt signal added to the total Akt signal and then multiplying by 100. The phosphorylation of Akt data points were fitted using a log (agonist) versus response, variable slope (4 parameters) analysis in GraphPad Prism to generate EC50 curves. The CM % agonism reflect the top value of the data points.

For another assay, the target named is T2, ErbB3 (Rattus norvegicus, UniProt Q62799).
T2 construct: forming the ErbB2/ErbB4 complex in cardiomyocytes and the ErbB2/ErbB3 complex in Schwann cells; endogenous in cells; host or cells: rat Schwann cells
T2 sequence (Q62799 20-1339): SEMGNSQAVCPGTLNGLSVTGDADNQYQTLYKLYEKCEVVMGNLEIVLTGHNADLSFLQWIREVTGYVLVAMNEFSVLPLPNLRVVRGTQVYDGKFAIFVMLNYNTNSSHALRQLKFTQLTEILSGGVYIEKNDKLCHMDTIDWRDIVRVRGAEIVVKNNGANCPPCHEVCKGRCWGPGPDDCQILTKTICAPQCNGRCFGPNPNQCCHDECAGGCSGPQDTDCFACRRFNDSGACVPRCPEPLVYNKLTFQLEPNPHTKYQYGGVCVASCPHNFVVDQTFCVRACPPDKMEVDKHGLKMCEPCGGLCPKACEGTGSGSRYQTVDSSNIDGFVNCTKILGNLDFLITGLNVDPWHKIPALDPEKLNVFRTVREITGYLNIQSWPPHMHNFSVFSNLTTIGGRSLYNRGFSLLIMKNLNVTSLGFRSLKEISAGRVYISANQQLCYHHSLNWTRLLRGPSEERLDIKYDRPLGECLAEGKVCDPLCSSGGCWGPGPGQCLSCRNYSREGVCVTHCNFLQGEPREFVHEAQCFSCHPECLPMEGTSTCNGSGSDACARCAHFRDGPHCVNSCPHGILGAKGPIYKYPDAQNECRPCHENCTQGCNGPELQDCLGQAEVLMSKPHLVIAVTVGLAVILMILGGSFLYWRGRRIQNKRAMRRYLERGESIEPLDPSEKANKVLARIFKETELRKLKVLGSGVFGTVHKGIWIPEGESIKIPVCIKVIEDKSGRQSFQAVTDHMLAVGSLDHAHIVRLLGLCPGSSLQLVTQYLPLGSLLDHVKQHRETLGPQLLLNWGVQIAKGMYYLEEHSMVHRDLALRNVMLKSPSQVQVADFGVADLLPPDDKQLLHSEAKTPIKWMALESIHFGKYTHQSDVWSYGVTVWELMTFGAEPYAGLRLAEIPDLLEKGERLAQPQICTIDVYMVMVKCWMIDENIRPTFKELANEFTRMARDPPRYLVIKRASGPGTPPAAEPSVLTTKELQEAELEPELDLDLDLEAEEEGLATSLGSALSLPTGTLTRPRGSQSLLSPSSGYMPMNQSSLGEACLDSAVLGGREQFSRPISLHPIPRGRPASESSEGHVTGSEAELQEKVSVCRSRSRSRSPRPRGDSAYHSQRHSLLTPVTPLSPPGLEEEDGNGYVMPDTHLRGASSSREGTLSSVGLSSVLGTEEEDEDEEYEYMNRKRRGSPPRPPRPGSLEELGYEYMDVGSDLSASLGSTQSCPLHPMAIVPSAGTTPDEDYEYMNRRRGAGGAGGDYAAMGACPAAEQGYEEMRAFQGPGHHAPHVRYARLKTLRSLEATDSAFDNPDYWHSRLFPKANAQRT
T2 sequence (P06494 23-1257 partner): as the sequence (P06494 23-1257 partner) above
In words: In vitro phosphorylation of Akt in rat Schwann cells. The assay is classed as cell-based. The conditions noted are these: Akt (Serine 473) phosphorylation, 15 minutes treatment. As to the method: as §1, §2, §3

B1: :huFcSEFL2(desK)vl31(+):G4SG4:huNRG1(S177-Q237)(NRGE1C): N-terminal Fc fusion of NRG1 variant SEQ ID NO:124 (protein)
chain: DKTHTCPPCPAPELLGGPSVFLFPPKPKDTLMISRTPEVTCVVVDVSHEDPEVKFNWYVDGVEVHNAKTKPCEEQYGSTYRCVSVLTVLHQDWLNGKEYKCKVSNKALPAPIEKTISKAKGQPREPQVYTLPPSREKMTKNQVSLTCLVKGFYPSDIAVEWESNGQPENNYKTTPPVLKSDGSFFLYSKLTVDKSRWQQGNVFSCSVMHEALHNHYTQKSLSLSPGGGGGSGGGGSHLVKCGEKHKSFCVNGGECFMIEGPSNPSRYLCKCPNEFTGDRCQEDFMASFYKAEELYQDKTHTCPPCPAPELLGGPSVFLFPPKPKDTLMISRTPEVTCVVVDVSHEDPEVKFNWYVDGVEVHNAKTKPCEEQYGSTYRCVSVLTVLHQDWLNGKEYKCKVSNKALPAPIEKTISKAKGQPREPQVYTLPPSREEMTENQVSLTCLVEGFYPSDIAVEWESNGQPENNYETTPPVLDSDGSFFLYSDLTVDKSRWQQGNVFSCSVMHEALHNHYTQKSLSLSPGK
modifications: huFcSEFL2(desK)v131(+)G4SG4huNRG1(S177-Q237) (NRGE1C)
As usually defined, the EC50 is the concentration that produces a half-maximal response. Take B1: in the assay with ErbB4, the EC50 is 300 pM, the “Selectivity SC/CM” value is above 10000 and the “CM % Agonism AVG” value is reported as 85.4%. Also, the “Schwann cells (SC) (ErbB3) Avg EC50 (M)” value with ErbB3 was “inactive”.

B2: :huFcSEFL2(desK)vl31(+):G4SG4:huNRG1(S177-Q237)(NRGE1D): N-terminal Fc fusion of NRG1 variant SEQ ID NO:131 (protein)
chain: DKTHTCPPCPAPELLGGPSVFLFPPKPKDTLMISRTPEVTCVVVDVSHEDPEVKFNWYVDGVEVHNAKTKPCEEQYGSTYRCVSVLTVLHQDWLNGKEYKCKVSNKALPAPIEKTISKAKGQPREPQVYTLPPSREKMTKNQVSLTCLVKGFYPSDIAVEWESNGQPENNYKTTPPVLKSDGSFFLYSKLTVDKSRWQQGNVFSCSVMHEALHNHYTQKSLSLSPGGGGGSGGGGSHLVKCGESHKSFCVNGGECYMVEGSSIPSRYLCKCPNEFTGDRCQEDFMASFYKAEELYQDKTHTCPPCPAPELLGGPSVFLFPPKPKDTLMISRTPEVTCVVVDVSHEDPEVKFNWYVDGVEVHNAKTKPCEEQYGSTYRCVSVLTVLHQDWLNGKEYKCKVSNKALPAPIEKTISKAKGQPREPQVYTLPPSREEMTENQVSLTCLVEGFYPSDIAVEWESNGQPENNYETTPPVLDSDGSFFLYSDLTVDKSRWQQGNVFSCSVMHEALHNHYTQKSLSLSPGK
modifications: huFcSEFL2(desK)v131(+)G4SG4huNRG1(S177-Q237) (NRGE1D)
Turning to B2, in the assay with ErbB4, the EC50 came out at 230 pM, the “Selectivity SC/CM” value is above 10000 and the “CM % Agonism AVG” value was determined as 88.7%. For the same molecule, in the assay with ErbB3, the “Schwann cells (SC) (ErbB3) Avg EC50 (M)” value was “inactive”.

B3: Wild-type as control: wild-type neuregulin sequence used as control in the Akt assays; construct not specified (wild-type fragment: SEQ ID NO: 112) (protein)
chain: SHLVKCAEKEKTFCVNGGECFMVKDLSNPSRYLCKCPNEFTGDRCQNYVMASFYKAEELYQ
modifications: chains of the parent or of the whole protein
Take B3: in the assay with ErbB4, the 50% effective concentration (EC50) is 150 pM and 154 pM and 280 pM and 253 pM.
